Measured values as given in US20220098319A1 (SHANGHAI PHARMAEXPLORER, published 2022).
Like-named read-outs stand apart in the source and are kept apart here.

How the values were obtained:
[1] = biological target: T1, murine CD73 (on transfected CHOK1 cells) (mouse, UniProt Q61503 29-551); assay: FACS on CHOK1-mCD73 cells
T1 construct: whole, on cells; also called CHOK1-mCD73; mCD73
T1 sequence (looked up): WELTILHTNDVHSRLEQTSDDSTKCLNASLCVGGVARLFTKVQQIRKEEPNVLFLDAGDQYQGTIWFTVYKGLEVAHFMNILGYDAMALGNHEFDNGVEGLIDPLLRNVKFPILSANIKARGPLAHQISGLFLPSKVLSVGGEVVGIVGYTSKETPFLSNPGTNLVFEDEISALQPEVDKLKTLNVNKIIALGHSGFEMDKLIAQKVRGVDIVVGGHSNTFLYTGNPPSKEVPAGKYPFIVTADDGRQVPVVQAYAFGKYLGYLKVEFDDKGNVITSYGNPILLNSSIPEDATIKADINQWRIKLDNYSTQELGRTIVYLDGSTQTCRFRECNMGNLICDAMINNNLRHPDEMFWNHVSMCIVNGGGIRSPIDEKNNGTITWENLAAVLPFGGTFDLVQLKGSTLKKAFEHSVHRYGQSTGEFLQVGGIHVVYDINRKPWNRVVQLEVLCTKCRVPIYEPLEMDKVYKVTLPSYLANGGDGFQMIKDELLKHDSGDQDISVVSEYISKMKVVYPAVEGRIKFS

[2] = biological target: T2, human CD73 (full length, on transfected CHOK1 cells) (human, UniProt P21589 27-549); assay: FACS on CHOK1-hCD73 cells
T2 construct: whole, on cells; The same id is used for CD73 on human CD4+ T cells in the proliferation assays; also called CHOK1-hCD73; hCD73
T2 sequence (looked up): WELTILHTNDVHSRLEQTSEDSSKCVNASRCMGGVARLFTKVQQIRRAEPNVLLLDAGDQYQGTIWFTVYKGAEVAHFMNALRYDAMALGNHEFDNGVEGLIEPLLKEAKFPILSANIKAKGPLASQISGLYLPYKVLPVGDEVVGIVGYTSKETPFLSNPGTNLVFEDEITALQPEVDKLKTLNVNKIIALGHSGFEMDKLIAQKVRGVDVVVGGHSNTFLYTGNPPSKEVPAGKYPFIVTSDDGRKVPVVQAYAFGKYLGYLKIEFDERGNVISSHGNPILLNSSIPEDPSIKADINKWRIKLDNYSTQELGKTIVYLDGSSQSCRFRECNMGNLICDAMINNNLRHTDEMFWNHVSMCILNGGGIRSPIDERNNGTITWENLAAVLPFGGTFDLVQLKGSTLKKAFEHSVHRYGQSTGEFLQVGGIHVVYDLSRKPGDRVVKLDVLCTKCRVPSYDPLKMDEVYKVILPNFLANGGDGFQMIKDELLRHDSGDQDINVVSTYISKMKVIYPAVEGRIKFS

[3] = biological target: T3, cynomolgus monkey CD73 (on transfected CHOK1 cells) (cynomolgus monkey, UniProt A0A2K5V5U7 27-549); assay: FACS on CHOK1-cCD73 cells
T3 construct: whole, on cells; also called CHOK1-cCD73; CHOK1-CCD73
T3 sequence: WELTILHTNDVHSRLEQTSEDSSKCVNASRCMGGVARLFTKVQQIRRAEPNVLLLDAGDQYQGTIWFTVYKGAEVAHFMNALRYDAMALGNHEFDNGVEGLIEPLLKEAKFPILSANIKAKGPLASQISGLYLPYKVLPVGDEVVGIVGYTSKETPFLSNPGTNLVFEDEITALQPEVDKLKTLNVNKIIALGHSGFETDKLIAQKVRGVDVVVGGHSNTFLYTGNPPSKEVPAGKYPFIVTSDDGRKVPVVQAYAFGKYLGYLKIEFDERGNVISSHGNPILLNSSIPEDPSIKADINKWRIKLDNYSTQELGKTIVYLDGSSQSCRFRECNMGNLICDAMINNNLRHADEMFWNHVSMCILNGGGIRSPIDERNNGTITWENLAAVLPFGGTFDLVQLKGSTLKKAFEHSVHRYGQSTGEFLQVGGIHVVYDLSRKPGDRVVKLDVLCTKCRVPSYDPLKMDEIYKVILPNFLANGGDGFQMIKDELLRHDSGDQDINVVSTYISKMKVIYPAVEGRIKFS

[4] = biological target: T4, His-tagged CD73 extracellular domain protein (hCD73 ECD-His) (human, UniProt P21589 27-547); assay: Octet BLI, antibody on AHC sensor, antigen 50-200 nM, 1:1 fit
T4 construct: Expressed in CHO cells from pTT5-hCD73 ECD-His6, purified on nickel column; also called hCD73 ECD-His6; human CD73 ECD
T4 sequence: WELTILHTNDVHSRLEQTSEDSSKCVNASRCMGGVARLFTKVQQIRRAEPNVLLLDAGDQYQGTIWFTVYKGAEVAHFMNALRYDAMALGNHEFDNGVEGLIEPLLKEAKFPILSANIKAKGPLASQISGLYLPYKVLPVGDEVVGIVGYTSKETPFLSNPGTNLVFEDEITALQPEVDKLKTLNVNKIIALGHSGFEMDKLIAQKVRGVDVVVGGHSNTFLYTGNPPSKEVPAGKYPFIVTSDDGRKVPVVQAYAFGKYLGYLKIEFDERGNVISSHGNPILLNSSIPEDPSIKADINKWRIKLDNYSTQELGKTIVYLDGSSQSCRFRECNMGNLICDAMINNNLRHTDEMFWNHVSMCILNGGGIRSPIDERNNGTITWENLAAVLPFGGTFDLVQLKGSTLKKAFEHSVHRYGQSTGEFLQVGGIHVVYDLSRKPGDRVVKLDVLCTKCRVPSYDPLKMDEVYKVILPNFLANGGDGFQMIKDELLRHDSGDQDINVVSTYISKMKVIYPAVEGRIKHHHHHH
Source text: Octet Red 96 was selected as the test instrument, and AHC biosensor was selected as the test sensor in this experiment. Anti-human IgG Fc antibody has been immobilized on the AHC sensor, which can be used to directly capture the 15 antibodies in this experiment. Then the sensor was immersed in the analysis sample (antigen). There were five steps in this experiment: 1, Baseline (120 s) 2, Loading (capture antibody) (300 s) 3, Baseline (120 s) 4, Association (binding antigen) (180 s) 5, Dissociation (antigen dissociation) (1200 s). After the test was completed, the regeneration buffer (Glycine PH1.5) and the neutralization buffer (1*PBS buffer) were alternately immersed for 5 seconds, and the sensor was regenerated by a total of five cycles. The maximum number of sensor regeneration times is 10. The running buffer in this experiment is the sample diluent (1*PBS buffer containing 0.02% Tween20 and 0.1% BSA), that is, the buffer used in the Baseline step, the Dissociation step, and the blank analyte sample. Four sensors are used at one running in this experiment.
Sample treatment: all the antibodies were diluted to the working concentration of 10 ug/ml with sample diluent (1*PBS buffer containing 0.02% Tween20 and 0.1% BSA), and the analyte samples (antigens) were diluted to three working concentrations: 200 nM, 100 nM and 50 nM.
For data analysis, Octet Data Analysis (version 7.0) was used to calculate the response signal value (the signal of the coupled analyte sample minus the signal of the blank analyte sample), and a 1:1 binding model was used to fit the data.

[5] = biological target: T2, human CD73 (full length, on transfected …); assay: cell-based or functional assay
[6] = biological target: T2, human CD73 (full length, on transfected …); assay: FACS on CHOK1-hCD73 cells
Experimental: The titration binding curve was produced by the following method:
The CHOK1 stable cell line transfected with human CD73 was expanded to a 75-90% confluence in a T-75 cell culture flask. The medium was aspirated, washed 1-2 times with PBS, and then treated with trypsin (Tryple express: Life technology) and cells were collected. The cells were washed with PBS buffer for 1-2 times. After counted, the cells were diluted with PBS to 1-2×10⁶ cells per ml, added with 1% fetal bovine serum (FBS) blocking solution, incubated on ice for 20-30 minutes, and then washed twice with HBSS by centrifugation. The collected cells were suspended with FACS buffer (PBS+2% FBS) to 2×10⁶ cells/ml, added to a 96-well FACS reaction plate at 100 microliters per well, and centrifuged at 300 g for 5 minutes to discard the supernatant. Anti-CD73 antibody was prepared with blocking solution to an initial concentration of 10 ug/ml and serially diluted at 8 points. 100 microliter per well of that antibody sample to be tested were added and incubated at 4° C. for 1-2 hours. […] The plate was washed 2-3 times with FACS buffer by centrifugation, added with 100 μl fixative solution (4% Paraformaldehyde) per well to suspend the cells. 5-10 minutes later, it was washed 1-2 times with FACS buffer by centrifugation. The cells were suspended with 100 microliters of FACS buffer, FACS (FACSCalibur, BD) was used for detection and the results were analyzed, as shown in FIG. 1 and Table 4.

[7] = biological target: T3, cynomolgus monkey CD73 (on transfected …); assay: FACS on CHOK1-cCD73 cells; remark: listed apart in the source
[8] = biological target: T1, murine CD73 (on transfected CHOK1 cells); assay: FACS on CHOK1-mCD73 cells; remark: listed apart in the source
[9] = biological target: T2, human CD73 (full length, on transfected …); assay: cell-based or functional assay; remark: listed apart in the source

B1: mab020xhIgG1TM (clone 24D6B4), mouse-human chimeric anti-CD73 antibody (antibody, V domains shown)
VH: EVQLQQSGPELVKPGASVKIPCKASGYTFTDYNMDWVKQRHGKSLEWIGDINPNNGGTVYNQKFKGKATLTVDKSSNTAYMELRSLTSEDTAVYYCARISGTGYWYFDVWGTGTTVTVSS
VL: DIQMTQSPASLSVSVGETVTITCRASENIYSNLAWYQQKQGKSPQLLVYGATNLADGVPSRFSGSDSGTQYSLKINSLQSEDFGSYYCQHFWGTPWTFGGGTKLEIK
notes: also called mAb020 chimeric antibody
Question: Which results are given for B1?
Answer: binding result [1]: no binding; EC50 [2]: 1.6 nM; MAX MFI fold [2]: 126 fold; EC50 [3]: 0.7 nM; MAX MFI fold [3]: 124 fold; Kd [4]: 0.0751 nM; koff [4]: 1.91e-05 s⁻¹; kon [4]: 255000 M⁻¹ s⁻¹; Inhibition assay of enzyme activity, IC50 [5]: 0.6 nM; Inhibition assay of enzyme activity, MAX % inhibition [5]: 57.7%

B2: mab032xhIgG1TM (clone 56F12H8), mouse-human chimeric anti-CD73 antibody (antibody, V domains shown)
VH: EVQLVESGGDLVKPGGSLKLSCAASGFTFSTHGMSWVRQTPDKRLEWVAIISSDRSDIDYTDNVKGRFTISRDNGKNTLYLQMSSLKSEDTAIYHCARHRGYDGFYYAMDYWGQGTSVTVSS
VL: DILMTQSPSSLTVTAGEKVTMSCRSSQSLLNSGNQKNYLTWYQQRPGRPPKLLIYWASTRISGVPDRFAGSGSGTDFTLTISIVQAEDLAVYYCQNDYSYPLTFGSGTKLELR
notes: also called mAb032 chimeric antibody
Question: Does B2 bind [1]?
Answer: no binding

Question: And the EC50 [2]?
Answer: 3.2 nM

Question: What about the “MAX MFI fold” value [2] of the same binder?
Answer: 130 fold

Question: And the EC50 [3]?
Answer: 2.6 nM

Question: What about the “MAX MFI fold” value [3] of the same binder?
Answer: 167 fold

Question: And the Kd [4]?
Answer: 0.279 nM

Question: What about the koff [4] of the same binder?
Answer: 1.95e-05 s⁻¹

Question: And the kon [4]?
Answer: 70000 M⁻¹ s⁻¹

Question: What about the “Inhibition assay of enzyme activity, IC50” value [5] of the same binder?
Answer: 0.3 nM

Question: And the “Inhibition assay of enzyme activity, MAX % inhibition” value [5]?
Answer: 65.1%

B3: mab034xhIgG1TM (clone 60G1C8), mouse-human chimeric anti-CD73 antibody (antibody, V domains shown)
VH: DVQLQESGPGLVKPSQSLSLTCSVTGYSITSRYYWNWIRQFPGNKLEWMGYMTYDGTNNYNPSLTNRISITRDTSKNQFFLKLNSVTAEDTATYFCARGGWDPFDYWGQGTTLTVSS
VL: DIQMTQSPAALSASVGETVTITCRASDNIYSYLAWYQQKQGKCPQLLVKNAKTLAEGVPSRFSGSGSGTQFSLRINSLQPDDFGTYYCQHYYGTPLTFGAGTKLELK
notes: also called mAb034 chimeric antibody
Question: What does the source list for B3?
Answer: binding result [1]: no binding; EC50 [2]: 5.7 nM; MAX MFI fold [2]: 154 fold; EC50 [3]: > 10 nM; MAX MFI fold [3]: > 150 fold; Kd [4]: 0.0577 nM; koff [4]: 2.36e-05 s⁻¹; kon [4]: 409000 M⁻¹ s⁻¹; Inhibition assay of enzyme activity, IC50 [5]: 0.2 nM; Inhibition assay of enzyme activity, MAX % inhibition [5]: 61.5%

B4: mab036xhIgG1TM (clone 66H6C12), mouse-human chimeric anti-CD73 antibody (antibody, V domains shown)
VH: QVQLQQSGAEVVKPGASVKISCKASGYVFSSYWINWVKQRPGKGLEWIGKIFPGNGDTDYNGNFKGKATLTADKSSSTAYMQLSSLTSEDSAVYFCAGFADWGQGTLVTVSA
VL: DIQMTQSPSSLSASLGERVSLTCRASQDIGERLIWLQQEPDGTFKRLIYATSSLDSGVPKRFSGSSSGSDYSLTISRLESEDFVDYYCLQYASSPYTFGGGTKLEIK
notes: also called mAb036 chimeric antibody
Question: Does B4 bind [1]?
Answer: no binding

Question: And the EC50 [2]?
Answer: 2 nM

Question: And the “MAX MFI fold” value [2]?
Answer: 125 fold

Question: And the EC50 [3]?
Answer: 1.5 nM

Question: And the “MAX MFI fold” value [3]?
Answer: 90.2 fold

Question: What about the Kd [4] of the same binder?
Answer: 0.0213 nM

Question: What about the koff [4] of the same binder?
Answer: 6.42e-06 s⁻¹

Question: And the kon [4]?
Answer: 301000 M⁻¹ s⁻¹

Question: What about the “Inhibition assay of enzyme activity, IC50” value [5] of the same binder?
Answer: 0.3 nM

Question: What about the “Inhibition assay of enzyme activity, MAX % inhibition” value [5] of the same binder?
Answer: 60.6%

B5: mAb032 (clone 56F12H8), murine anti-CD73 antibody (antibody, V domains shown)
VH: EVQLVESGGDLVKPGGSLKLSCAASGFTFSTHGMSWVRQTPDKRLEWVAIISSDRSDIDYTDNVKGRFTISRDNGKNTLYLQMSSLKSEDTAIYHCARHRGYDGFYYAMDYWGQGTSVTVSS
VL: DILMTQSPSSLTVTAGEKVTMSCRSSQSLLNSGNQKNYLTWYQQRPGRPPKLLIYWASTRISGVPDRFAGSGSGTDFTLTISIVQAEDLAVYYCQNDYSYPLTFGSGTKLELR
notes: Purified from hybridoma supernatant
Question: Which results are given for B5?
Answer: EC50 [6]: 2.6 nM; MAX MFI [6]: 7660 MFI; EC50 [7]: 0.7 nM; MAX MFI [7]: 6050 MFI; binding result [8]: no binding (tested: 10 ug/ml initial concentration); Enzyme activity blocking assay, IC50 [9]: 1.2 nM; Enzyme activity blocking assay, MAX % inhibition [9]: 66.9%
